Molecular target: Gelsolin (full-length) (Homo sapiens, UniProt P06396 P06396:28-782)
Experiment: ELONA; aptamer-Ag nanoparticles coated directly, gelsolin 2 ug/well, anti-gelsolin detection; room temperature
Details: tags: Sigma; His tag inferred from capture by anti-His antibody; label: silver nanoparticle
Experimental: In case of aptamer based Ag nanoparticles formation, reaction mixture was prepared by adding 18 μl of Aptamer 10.10R (SEQ ID No. 8) (4.86 μg/μl or 18 pmoles/μl) in each 0.2 ml of reaction volume of buffer (25 mM tris pH 8, 150 mM NaCl, 5 mM MgCl₂, 10 mM KCl, 0.01% tween and 2 mM CaCl₂) with 7.2 μl of AgNO₃ of 5 mM stock solution to form Ag nanoparticles. The final molar ratio of silver ions to aptamer 10.10R was kept constant at […]. Treated the ELISA plate with 1 μg/well streptavidin (1 mg/ml) and incubated the plate overnight at 4° C. For aptamer based Ag nanoparticles coating streptavidin was not used. The wells were blocked with 3% bovine serum albumin (BSA) in PBS and kept at room temperature for 2 hours to saturate excess binding sites. The wells were then washed three times with PBST and further added with 5, 10 and 20 μl of aptamer only and aptamer Ag nanoparticles (18 pmoles/μl), making aptamer working concentration of […]. All the coatings were performed in duplicates for two conditions one with and one without gelsolin in next step. […] The absorbance was measured with a multiskan ELISA reader at 450 nm.
It was observed that the coated aptamer or aptamer_Ag nanoparticles were captured by gelsolin which was further detected using anti-gelsolin antibody using an indirect ELISA based method (FIG. 4C). […]

Chain of Gelsolin (full-length) (P06396 28-782, one chain of several): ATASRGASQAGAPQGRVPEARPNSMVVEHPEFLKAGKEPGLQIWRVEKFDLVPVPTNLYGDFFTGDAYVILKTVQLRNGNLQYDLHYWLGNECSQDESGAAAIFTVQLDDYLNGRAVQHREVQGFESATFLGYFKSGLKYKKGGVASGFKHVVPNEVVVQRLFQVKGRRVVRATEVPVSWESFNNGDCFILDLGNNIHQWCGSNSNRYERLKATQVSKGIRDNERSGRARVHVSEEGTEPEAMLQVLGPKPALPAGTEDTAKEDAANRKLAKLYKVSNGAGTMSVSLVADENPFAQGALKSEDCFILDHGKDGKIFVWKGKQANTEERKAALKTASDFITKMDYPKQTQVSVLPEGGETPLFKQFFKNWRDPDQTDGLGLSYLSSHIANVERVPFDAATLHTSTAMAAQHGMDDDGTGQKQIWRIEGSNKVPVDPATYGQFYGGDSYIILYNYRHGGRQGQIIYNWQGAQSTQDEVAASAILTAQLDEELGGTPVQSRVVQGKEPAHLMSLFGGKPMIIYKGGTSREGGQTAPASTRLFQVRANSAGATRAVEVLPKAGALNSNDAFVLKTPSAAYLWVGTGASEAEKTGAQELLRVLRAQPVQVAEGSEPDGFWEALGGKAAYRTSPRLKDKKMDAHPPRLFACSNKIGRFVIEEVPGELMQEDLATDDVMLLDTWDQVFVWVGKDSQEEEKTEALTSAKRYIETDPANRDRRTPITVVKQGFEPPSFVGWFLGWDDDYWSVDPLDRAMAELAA

B1: Aptamer 10.10R coated on Ag nanoparticles (ssDNA)
DNA: TCAAGTGGTCATGTACTAGTCAAGCACTTTCGCTGCTCGCTGGCGCCGCGCCCATCATATGTCCTTCTCTTCCCTA
  binding signal: 3 fold vs aptamer only

From patent publication US20180071818, “A PROCESS FOR THE PREPARATION OF BIO-ORGANIC COATED GOLD AND SILVER NANOPARTICLES USING BLUE LIGHT” (Council of Scientific & Industrial Research, published 2018)
